Source: publication PMC9205888, “Efficient discrimination against RNA-containing primers by human DNA polymerase ε”

B1: EMSA D15 template:primer (dsDNA)
DNA 1: ATTATGGCAGCTCGGAGTCC
DNA 2: GGACTCCGAGCTGCC
B2: R4-D7 template:primer (mixed)
DNA: AATACATAAGCGCTCCAGGCAAT
RNA: GCCUGGAGCGC
modifications: primer nt 1-4 RNA, nt 5-11 DNA, 3' ddC
B3: R10-D1 template:primer (mixed)
DNA: AATACATAAGCGCTCCAGGCAAT
RNA: GCCUGGAGCGC
modifications: primer nt 1-10 RNA, nt 11 2',3'-dideoxy-C
B4: R6-D5 template:primer (mixed)
DNA: AATACATAAGCGCTCCAGGCAAT
RNA: GCCUGGAGCGC
modifications: primer nt 1-6 RNA, nt 7-11 DNA, 3' ddC
B5: D11 template:primer (dsDNA)
DNA 1: AATACATAAGCGCTCCAGGCAAT
DNA 2: GCCTGGAGCGC
modifications: primer 3'-terminal 2',3'-dideoxy-C
B6: R8-D3 template:primer (mixed)
DNA: AATACATAAGCGCTCCAGGCAAT
RNA: GCCUGGAGCGC
modifications: primer nt 1-8 RNA, nt 9-11 DNA, 3' ddC
B7: D10-R1 template:primer (mixed)
DNA 1: AATACATAAGCGCTCCAGGCAAT
DNA 2: GCCTGGAGCGC
modifications: primer nt 1-10 DNA, nt 11 3'-deoxy-C (2'-OH)
B8: R11 template:primer (DNA:RNA)
DNA: AATACATAAGCGCTCCAGGCAAT
RNA: GCCUGGAGCGC
modifications: RNA primer

Columns and labels:
[1] = target: T1, hPolεCD (DNA polymerase ε catalytic domain, exo-) (Homo sapiens, UniProt Q07864 27-1172, D275N;E277Q;del185-209); test: EMSA; 100 mM NaCl, 0.5 µM DNA; active fraction titration (55.4 ± 4.3%); BLI (Octet K2): 30 mM Tris-Hepes pH 7.8, 100-150 mM NaCl, 2 mM TCEP, 0.002% Tween 20, 23 °C; EMSA: 20 mM Tris-Hepes pH 7.8, 100 mM NaCl, 2% glycerol, 2 mM TCEP, 0.2 mg/mL BSA, room temperature; conditions: protein: recombinant; tags: none in final protein (N-terminal His6-Sumo cleaved); label: 5' Cy3 on primer; template 5' overhang 5 nt
T1 sequence (Q07864 other isoform, or with tags, fused parts or gaps D275N;E277Q;del185-209): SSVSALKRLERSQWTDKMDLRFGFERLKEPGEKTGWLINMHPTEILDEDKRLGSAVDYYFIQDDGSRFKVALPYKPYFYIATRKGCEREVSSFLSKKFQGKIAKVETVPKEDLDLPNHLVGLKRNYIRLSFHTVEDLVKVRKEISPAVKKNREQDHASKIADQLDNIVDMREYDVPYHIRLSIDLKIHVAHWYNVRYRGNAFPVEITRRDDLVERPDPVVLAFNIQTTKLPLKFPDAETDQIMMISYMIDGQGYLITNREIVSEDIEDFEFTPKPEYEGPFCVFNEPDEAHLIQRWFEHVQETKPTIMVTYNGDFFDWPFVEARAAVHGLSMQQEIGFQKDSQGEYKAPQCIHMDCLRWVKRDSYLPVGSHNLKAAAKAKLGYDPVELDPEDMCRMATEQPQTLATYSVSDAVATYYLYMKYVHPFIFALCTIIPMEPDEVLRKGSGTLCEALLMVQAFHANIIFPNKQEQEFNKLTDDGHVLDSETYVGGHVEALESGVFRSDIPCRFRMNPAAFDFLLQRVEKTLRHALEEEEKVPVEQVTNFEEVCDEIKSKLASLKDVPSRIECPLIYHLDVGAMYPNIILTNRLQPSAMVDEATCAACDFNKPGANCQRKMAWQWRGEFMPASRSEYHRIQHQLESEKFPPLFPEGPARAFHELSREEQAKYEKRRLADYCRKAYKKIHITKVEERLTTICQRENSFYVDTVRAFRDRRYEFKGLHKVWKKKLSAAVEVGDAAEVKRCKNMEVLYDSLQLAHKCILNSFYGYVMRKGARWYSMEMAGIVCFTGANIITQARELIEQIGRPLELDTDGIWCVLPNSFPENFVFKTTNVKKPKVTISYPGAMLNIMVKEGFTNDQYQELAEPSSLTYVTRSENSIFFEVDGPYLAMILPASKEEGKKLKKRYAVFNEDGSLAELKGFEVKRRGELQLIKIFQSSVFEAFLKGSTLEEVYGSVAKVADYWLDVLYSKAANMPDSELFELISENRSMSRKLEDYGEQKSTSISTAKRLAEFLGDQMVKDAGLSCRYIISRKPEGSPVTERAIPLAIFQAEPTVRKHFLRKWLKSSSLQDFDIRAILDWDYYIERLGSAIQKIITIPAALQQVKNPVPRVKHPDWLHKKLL

[2] = target: T1, hPolεCD (DNA polymerase ε catalytic …); test: BLI; 100 mM NaCl, 50 µM dTTP, 5 mM Mg2+; BLI (Octet K2): 30 mM Tris-Hepes pH 7.8, 100-150 mM NaCl, 2 mM TCEP, 0.002% Tween 20, 23 °C; EMSA: 20 mM Tris-Hepes pH 7.8, 100 mM NaCl, 2% glycerol, 2 mM TCEP, 0.2 mg/mL BSA, room temperature; conditions: protein: recombinant; tags: none in final protein (N-terminal His6-Sumo cleaved); label: 5' BiotinTEG on template; template 5' overhang 9 nt and 3' overhang 3 nt
[3] = target: T1, hPolεCD (DNA polymerase ε catalytic …); test: BLI; 100 mM NaCl, no dTTP/Mg2+; BLI (Octet K2): 30 mM Tris-Hepes pH 7.8, 100-150 mM NaCl, 2 mM TCEP, 0.002% Tween 20, 23 °C; EMSA: 20 mM Tris-Hepes pH 7.8, 100 mM NaCl, 2% glycerol, 2 mM TCEP, 0.2 mg/mL BSA, room temperature; conditions: protein: recombinant; tags: none in final protein (N-terminal His6-Sumo cleaved); label: 5' BiotinTEG on template; template 5' overhang 9 nt and 3' overhang 3 nt
[4] = target: T1, hPolεCD (DNA polymerase ε catalytic …); test: BLI; 125 mM NaCl, no dTTP/Mg2+; BLI (Octet K2): 30 mM Tris-Hepes pH 7.8, 100-150 mM NaCl, 2 mM TCEP, 0.002% Tween 20, 23 °C; EMSA: 20 mM Tris-Hepes pH 7.8, 100 mM NaCl, 2% glycerol, 2 mM TCEP, 0.2 mg/mL BSA, room temperature; conditions: protein: recombinant; tags: none in final protein (N-terminal His6-Sumo cleaved); label: 5' BiotinTEG on template; template 5' overhang 9 nt and 3' overhang 3 nt
[5] = target: T1, hPolεCD (DNA polymerase ε catalytic …); test: BLI; 150 mM NaCl, no dTTP/Mg2+; BLI (Octet K2): 30 mM Tris-Hepes pH 7.8, 100-150 mM NaCl, 2 mM TCEP, 0.002% Tween 20, 23 °C; EMSA: 20 mM Tris-Hepes pH 7.8, 100 mM NaCl, 2% glycerol, 2 mM TCEP, 0.2 mg/mL BSA, room temperature; conditions: protein: recombinant; tags: none in final protein (N-terminal His6-Sumo cleaved); label: 5' BiotinTEG on template; template 5' overhang 9 nt and 3' overhang 3 nt

Binder	Kd [3] [nM]	further results
B1		binding result [1]: binds
B2	58.6 ± 1.3	Kd [2]: 83 ± 3.3 nM
B3	73 ± 14	
B4	69.8 ± 6.4	
B5	61.4 ± 12	Kd [4]: 532 ± 53 nM; Kd [2]: 120 ± 11 nM; Kd [5]: 1520 ± 91 nM
B6	62.5 ± 6.1	
B7	45.6 ± 6.1	
B8	65.8 ± 8.8	
